# Data published in patent publication US20250163164A1 (LANOVA MEDICINES DEVELOPMENT, published 2025).
# Values joined by “and” are separate entries in the source; they are usually repeats but may differ in a detail not shown here. Equal entries are not always repeated.
# T1: human interleukin 13 receptor subunit alpha 2 (IL-13RA2) (human, UniProt Q14627 27-380)
# T1 construct: whole, on cells; also called IL-13Rα2; CD213A2
# T1 sequence (looked up): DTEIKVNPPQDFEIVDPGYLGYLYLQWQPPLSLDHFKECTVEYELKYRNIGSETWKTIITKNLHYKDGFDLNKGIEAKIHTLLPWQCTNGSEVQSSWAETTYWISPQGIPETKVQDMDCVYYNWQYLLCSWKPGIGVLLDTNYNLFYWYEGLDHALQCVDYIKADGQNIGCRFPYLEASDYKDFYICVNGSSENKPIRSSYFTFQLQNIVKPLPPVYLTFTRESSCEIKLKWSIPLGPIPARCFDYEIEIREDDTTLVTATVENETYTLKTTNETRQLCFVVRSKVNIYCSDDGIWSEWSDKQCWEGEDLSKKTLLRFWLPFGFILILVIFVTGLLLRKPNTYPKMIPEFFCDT
# Molecular target: T1, human interleukin 13 receptor subunit …
# Assay: FACS on A375 cells
# Description: A375 cells that endogenously expressed IL-13RA2, were harvested from flasks. 100 μl of 1×10⁶ cells/ml of cells were incubated with primary humanized antibodies in 4-fold serial dilutions starting from 200 nM to 0.003 nM for 30 minutes on ice. After being washed with 200 μl of FACS buffer twice, cells were incubated with secondary antibody for 30 minutes on ice. Cells were washed with 200 μl of FACS buffer twice and analyzed by FACS.
Binder,EC50,Top (MFI)
"72B4H4 H2L1 hIgG1 (antibody, V domains shown, humanized, hIgG1) VH: QVQLVQSGAEVVKPGASVKVSCKASGYTFTNYWMNWVRQAPGQGLEWIGRIDAYAGETHYNQKFKDRVTMTVDTSTSTVYMELSSLRSEDTAVYYCARGYGDAYGMDHWGQGTLVTVSS VL: DIQMTQSPSSLSASVGDRVTITCRASESVDNYGISFMNWYQQKPGKAPKLLIYAASRQGSGVPSRFSGSGSGTDFTLTISSLQPEDFATYYCQQSKEVPWTFGQGTKVEIK",2.75 nM,8360 MFI
"72B4H4 H4L4 hIgG1 (antibody, V domains shown, humanized, hIgG1) VH: QVQLVQSGAEVVKPGASVKLSCKASGYTFTNYWMNWVKQRPGQGLEWIGRIDAYAGETHYNQKFKDRAILTVDKSTSTAYMELRSLRSEDTAVYYCARGYGDAYGMDHWGQGTLVTVSS VL: DIVLTQSPSSLSASVGDRATITCRASESVDNYGISFMNWFQQKPGKPPKLLIYAASRQGSGDPARFSGSGSGTDFTLTISSLQPEDFATYFCQQSKEVPWTFGGGTKLEIK",1.18 nM,8180 MFI
"72B4H4 H2L4 hIgG1 (antibody, V domains shown, humanized, hIgG1) VH: QVQLVQSGAEVVKPGASVKVSCKASGYTFTNYWMNWVRQAPGQGLEWIGRIDAYAGETHYNQKFKDRVTMTVDTSTSTVYMELSSLRSEDTAVYYCARGYGDAYGMDHWGQGTLVTVSS VL: DIVLTQSPSSLSASVGDRATITCRASESVDNYGISFMNWFQQKPGKPPKLLIYAASRQGSGDPARFSGSGSGTDFTLTISSLQPEDFATYFCQQSKEVPWTFGGGTKLEIK",1.18 nM,8630 MFI
"72B4H4 H3L1 hIgG1 (antibody, V domains shown, humanized, hIgG1) VH: QVQLVQSGAEVVKPGASVKLSCKASGYTFTNYWMNWVKQAPGQGLEWIGRIDAYAGETHYNQKFKDRATLTVDKSTSTVYMELSSLRSEDTAVYYCARGYGDAYGMDHWGQGTLVTVSS VL: DIQMTQSPSSLSASVGDRVTITCRASESVDNYGISFMNWYQQKPGKAPKLLIYAASRQGSGVPSRFSGSGSGTDFTLTISSLQPEDFATYYCQQSKEVPWTFGQGTKVEIK",1.14 nM,8830 MFI
"72B4H4 H4L3 hIgG1 (antibody, V domains shown, humanized, hIgG1) VH: QVQLVQSGAEVVKPGASVKLSCKASGYTFTNYWMNWVKQRPGQGLEWIGRIDAYAGETHYNQKFKDRAILTVDKSTSTAYMELRSLRSEDTAVYYCARGYGDAYGMDHWGQGTLVTVSS VL: DIQLTQSPSSLSASVGDRVTITCRASESVDNYGISFMNWFQQKPGKAPKLLIYAASRQGSGDPARFSGSGSGTDFTLTISSLQPEDFATYFCQQSKEVPWTFGGGTKVEIK",0.811 nM,8470 MFI
"72B4H4 H3L2 hIgG1 (antibody, V domains shown, humanized, hIgG1) VH: QVQLVQSGAEVVKPGASVKLSCKASGYTFTNYWMNWVKQAPGQGLEWIGRIDAYAGETHYNQKFKDRATLTVDKSTSTVYMELSSLRSEDTAVYYCARGYGDAYGMDHWGQGTLVTVSS VL: DIQMTQSPSSLSASVGDRVTITCRASESVDNYGISFMNWFQQKPGKAPKLLIYAASRQGSGDPSRFSGSGSGTDFTLTISSLQPEDFATYFCQQSKEVPWTFGQGTKVEIK",1.44 nM,8550 MFI
"72B4H4 H4L1 hIgG1 (antibody, V domains shown, humanized, hIgG1) VH: QVQLVQSGAEVVKPGASVKLSCKASGYTFTNYWMNWVKQRPGQGLEWIGRIDAYAGETHYNQKFKDRAILTVDKSTSTAYMELRSLRSEDTAVYYCARGYGDAYGMDHWGQGTLVTVSS VL: DIQMTQSPSSLSASVGDRVTITCRASESVDNYGISFMNWYQQKPGKAPKLLIYAASRQGSGVPSRFSGSGSGTDFTLTISSLQPEDFATYYCQQSKEVPWTFGQGTKVEIK",0.552 nM,8270 MFI
"72B4H4 H3L4 hIgG1 (antibody, V domains shown, humanized, hIgG1) VH: QVQLVQSGAEVVKPGASVKLSCKASGYTFTNYWMNWVKQAPGQGLEWIGRIDAYAGETHYNQKFKDRATLTVDKSTSTVYMELSSLRSEDTAVYYCARGYGDAYGMDHWGQGTLVTVSS VL: DIVLTQSPSSLSASVGDRATITCRASESVDNYGISFMNWFQQKPGKPPKLLIYAASRQGSGDPARFSGSGSGTDFTLTISSLQPEDFATYFCQQSKEVPWTFGGGTKLEIK",1.36 nM,8770 MFI
"72B4H4 H3L3 hIgG1 (antibody, V domains shown, humanized, hIgG1) VH: QVQLVQSGAEVVKPGASVKLSCKASGYTFTNYWMNWVKQAPGQGLEWIGRIDAYAGETHYNQKFKDRATLTVDKSTSTVYMELSSLRSEDTAVYYCARGYGDAYGMDHWGQGTLVTVSS VL: DIQLTQSPSSLSASVGDRVTITCRASESVDNYGISFMNWFQQKPGKAPKLLIYAASRQGSGDPARFSGSGSGTDFTLTISSLQPEDFATYFCQQSKEVPWTFGGGTKVEIK",1.66 nM,8780 MFI
"72B4H4 H4L2 hIgG1 (antibody, V domains shown, humanized, hIgG1) VH: QVQLVQSGAEVVKPGASVKLSCKASGYTFTNYWMNWVKQRPGQGLEWIGRIDAYAGETHYNQKFKDRAILTVDKSTSTAYMELRSLRSEDTAVYYCARGYGDAYGMDHWGQGTLVTVSS VL: DIQMTQSPSSLSASVGDRVTITCRASESVDNYGISFMNWFQQKPGKAPKLLIYAASRQGSGDPSRFSGSGSGTDFTLTISSLQPEDFATYFCQQSKEVPWTFGQGTKVEIK",0.976 nM,8610 MFI
"72B4H4 H2L3 hIgG1 (antibody, V domains shown, humanized, hIgG1) VH: QVQLVQSGAEVVKPGASVKVSCKASGYTFTNYWMNWVRQAPGQGLEWIGRIDAYAGETHYNQKFKDRVTMTVDTSTSTVYMELSSLRSEDTAVYYCARGYGDAYGMDHWGQGTLVTVSS VL: DIQLTQSPSSLSASVGDRVTITCRASESVDNYGISFMNWFQQKPGKAPKLLIYAASRQGSGDPARFSGSGSGTDFTLTISSLQPEDFATYFCQQSKEVPWTFGGGTKVEIK",0.83 nM,8420 MFI
"73A11E2 H2L2 hIgG1 (antibody, V domains shown, humanized, hIgG1) VH: QVQLVQSGAEVVKPGASVKVSCKASGFTFSSYGMSWVRQAPGQGLEWVGTISGGGSYTYYPESVKGRFTITRDTSTSTAYMELRSLRSDDTAVYYCARRDLRSAMDYWGQGTLVTVSS VL: DIVMTQSPLSLPVTLGQPASISCKASQNVDINVAWYQQRPGQSPRALIYSASYRYSGVPDRFSGSGSGTDFTLKISRVEAEDVGVFYCQQYNAYPLTFGQGTKLEIK",0.67 nM,
"73A11E2 H3L1 hIgG1 (antibody, V domains shown, humanized, hIgG1) VH: QVQLVQSGAEVVKPGASVKLSCKASGFTFSSYGMSWVRQAPGQGLEWVATISGGGSYTYYPESVKGRFTITRDNSTSTLYMEMRSLRSDDTAVYYCARRDLRSAMDYWGQGTLVTVSS VL: DVVMTQSPLSLPVTLGQPASISCKASQNVDINVAWFQQRPGQSPRRLIYSASYRYSGVPDRFSGSGSGTDFTLKISRVEAEDVGVYYCQQYNAYPLTFGQGTKLEIK",1.07 nM and 1.37 nM,
"73A11E2 H3L2 hIgG1 (antibody, V domains shown, humanized, hIgG1) VH: QVQLVQSGAEVVKPGASVKLSCKASGFTFSSYGMSWVRQAPGQGLEWVATISGGGSYTYYPESVKGRFTITRDNSTSTLYMEMRSLRSDDTAVYYCARRDLRSAMDYWGQGTLVTVSS VL: DIVMTQSPLSLPVTLGQPASISCKASQNVDINVAWYQQRPGQSPRALIYSASYRYSGVPDRFSGSGSGTDFTLKISRVEAEDVGVFYCQQYNAYPLTFGQGTKLEIK",2.22 nM and 1.53 nM,
"73A11E2 H2L3 hIgG1 (antibody, V domains shown, humanized, hIgG1) VH: QVQLVQSGAEVVKPGASVKVSCKASGFTFSSYGMSWVRQAPGQGLEWVGTISGGGSYTYYPESVKGRFTITRDTSTSTAYMELRSLRSDDTAVYYCARRDLRSAMDYWGQGTLVTVSS VL: DIVMTQSPLSLPTTLGQPASISCKASQNVDINVAWYQQRPGQSPRALIYSASYRYSGVPDRFSGSGSGTDFTLTISRVEAEDVGVFYCQQYNAYPLTFGGGTKLEIK",0.69 nM and 0.67 nM,
"73A11E2 H2L4 hIgG1 (antibody, V domains shown, humanized, hIgG1) VH: QVQLVQSGAEVVKPGASVKVSCKASGFTFSSYGMSWVRQAPGQGLEWVGTISGGGSYTYYPESVKGRFTITRDTSTSTAYMELRSLRSDDTAVYYCARRDLRSAMDYWGQGTLVTVSS VL: DIVMTQSPLSLPTTLGQPVSVSCKASQNVDINVAWYQQRPGQSPRALIYSASYRYSGVPDRFSGSGSGTDFTLTISRVEAEDVAVFFCQQYNAYPLTFGGGTKLEIK",1.61 nM and 0.66 nM,
"73A11E2 H1L3 hIgG1 (antibody, V domains shown, humanized, hIgG1) VH: QVQLVQSGAEVKKPGASVKVSCKASGFTFSSYGMSWVRQAPGQGLEWMGTISGGGSYTYYPESVKGRVTMTTDTSTSTAYMELRSLRSDDTAVYYCARRDLRSAMDYWGQGTLVTVSS VL: DIVMTQSPLSLPTTLGQPASISCKASQNVDINVAWYQQRPGQSPRALIYSASYRYSGVPDRFSGSGSGTDFTLTISRVEAEDVGVFYCQQYNAYPLTFGGGTKLEIK",~251 nM and ~522 nM,
"73A11E2 H3L3 hIgG1 (antibody, V domains shown, humanized, hIgG1) VH: QVQLVQSGAEVVKPGASVKLSCKASGFTFSSYGMSWVRQAPGQGLEWVATISGGGSYTYYPESVKGRFTITRDNSTSTLYMEMRSLRSDDTAVYYCARRDLRSAMDYWGQGTLVTVSS VL: DIVMTQSPLSLPTTLGQPASISCKASQNVDINVAWYQQRPGQSPRALIYSASYRYSGVPDRFSGSGSGTDFTLTISRVEAEDVGVFYCQQYNAYPLTFGGGTKLEIK",1.49 nM and 1.17 nM,
"73A11E2 H2L1 hIgG1 (antibody, V domains shown, humanized, hIgG1) VH: QVQLVQSGAEVVKPGASVKVSCKASGFTFSSYGMSWVRQAPGQGLEWVGTISGGGSYTYYPESVKGRFTITRDTSTSTAYMELRSLRSDDTAVYYCARRDLRSAMDYWGQGTLVTVSS VL: DVVMTQSPLSLPVTLGQPASISCKASQNVDINVAWFQQRPGQSPRRLIYSASYRYSGVPDRFSGSGSGTDFTLKISRVEAEDVGVYYCQQYNAYPLTFGQGTKLEIK",0.6 nM and 0.56 nM,
